{"source": "patent US20190211098A1", "about": "(Genentech, published 2019)", "binders": {"B1": {"name": "PILRA G78 variant extracellular domain fused to murine IgG2a Fc (Fc fusion)", "chain": "QPSGSTGSGPSYLYGVTQPKHLSASMGGSVEIPFSFYYPWELATAPDVRISWRRGHFHGQSFYSTRPPSIHKDYVNRLFLNWTEGQKSGFLRISNLQKQDQSVYFCRVELDTRSSGRQQWQSIEGTKLSITQAVTTTTQRPSSMTTTWRLSSTTTTTGLRVTQGKRRSDSWHISLET", "notes": "Made in CHO cells, protein A/G purified; also called PILRA-mFc G78; PILRA-Fc G78; not shown: Fc region of murine IgG2a, C-terminal tag"}}, "key": {"NPDC1-His": {"target": "T1, NPDC1-His (human, UniProt Q9NQX5 35-181, limits assumed)", "T1 construct": "not shown: His tag", "T1 sequence": "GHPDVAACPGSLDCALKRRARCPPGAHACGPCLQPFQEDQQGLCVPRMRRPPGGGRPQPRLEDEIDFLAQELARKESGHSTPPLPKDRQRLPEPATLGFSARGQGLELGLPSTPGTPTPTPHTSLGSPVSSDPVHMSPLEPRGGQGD", "assay": "SPR, NPDC1-His binding to PILRA variant"}, "[1]": {"target": "T2, Full length myc-DDK tagged PIANP, expressed on transfected 293T cells (human, UniProt Q8IYJ0 32-282)", "T2 construct": "Bought construct (Origene Cat. No. RC207868); also called myc-PIANP; C12orf53 (human); not shown: myc-DDK tag of the Origene construct RC207868", "T2 sequence": "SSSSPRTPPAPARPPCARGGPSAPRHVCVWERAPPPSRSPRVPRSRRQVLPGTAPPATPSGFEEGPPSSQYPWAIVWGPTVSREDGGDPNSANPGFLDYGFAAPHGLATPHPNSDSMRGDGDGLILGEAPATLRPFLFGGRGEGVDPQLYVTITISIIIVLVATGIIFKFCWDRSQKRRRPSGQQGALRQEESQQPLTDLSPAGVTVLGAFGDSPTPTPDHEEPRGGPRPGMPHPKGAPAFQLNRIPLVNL", "assay": "flow cytometry, soluble PILRA-mFc 50 ug/ml on ligand-transfected 293T cells"}, "[2]": {"target": "T3, HSV-1 glycoprotein B, full length, expressed on transfected 293T cells (human herpes simplex virus type-1, UniProt P06437 31-904)", "T3 construct": "Construct cloned from EF157316 (strain KOSc); also called HSV-1 gB; human herpesvirus 1 strain KOSc glycoprotein B (EF157316)", "assay": "flow cytometry, soluble PILRA-mFc 50 ug/ml on ligand-transfected 293T cells"}}}
{"binder": "B1", "values": [{"measurement": "Kd", "setting": "NPDC1-His", "value": 16.8, "unit": "nM"}, {"measurement": "kon", "setting": "NPDC1-His", "value": 22000, "unit": "M⁻¹ s⁻¹"}, {"measurement": "binding result", "setting": "[1]", "value": "binds"}, {"measurement": "binding result", "setting": "[2]", "value": "binds"}]}
